Experimental data from paper PMC3444665 (Virology, 2012).

How the values were obtained:
Experiment in all cases: pull-down
GST-Agno (F35A) = target: T1, GST-Agno (F35A) (JC virus (JCV Mad-1), UniProt P03086 1-71, F35A)
T1 sequence: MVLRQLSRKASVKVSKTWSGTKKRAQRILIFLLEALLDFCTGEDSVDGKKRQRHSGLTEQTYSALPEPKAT

GST-Agno (F39A) = target: T2, GST-Agno (F39A) (JC virus (JCV Mad-1), UniProt P03086 1-71, F39A)
T2 sequence: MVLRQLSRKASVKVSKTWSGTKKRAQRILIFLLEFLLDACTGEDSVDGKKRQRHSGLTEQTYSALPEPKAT

GST-Agno (F31A) = target: T3, GST-Agno (F31A) (JC virus (JCV Mad-1), UniProt P03086 1-71, F31A)
T3 sequence: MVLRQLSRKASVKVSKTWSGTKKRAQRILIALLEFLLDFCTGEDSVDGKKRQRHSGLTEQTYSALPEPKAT

Measured: fold decrease of the interaction against WT agnoprotein

B1: JCV large T-antigen in whole-cell extracts of HJC-15b cells (natural protein)
chain: MDKVLNREESMELMDLLGLDRSAWGNIPVMRKAYLKKCKELHPDKGGDEDKMKRMNFLYKKMEQGVKVAHQPDFGTWNSSEVPTYGTDEWESWWNTFNEKWDEDLFCHEEMFASDDENTGSQHSTPPKKKKKVEDPKDFPVDLHAFLSQAVFSNRTVASFAVYTTKEKAQILYKKLMEKYSVTFISRHGFGGHNILFFLTPHRHRVSAINNYCQKLCTFSFLICKGVNKEYLFYSALCRQPYAVVEESIQGGLKEHDFNPEEPEETKQVSWKLVTQYALETKCEDVFLLMGMYLDFQENPQQCKKCEKKDQPNHFNHHEKHYYNAQIFADSKNQKSICQQAVDTVAAKQRVDSIHMTREEMLVERFNFLLDKMDLIFGAHGNAVLEQYMAGVAWIHCLLPQMDTVIYDFLKCIVLNIPKKRYWLFKGPIDSGKTTLAAALLDLCGGKSLNVNMPLERLNFELGVGIDQFMVVFEDVKGTGAESRDLPSGHGISNLDCLRDYLDGSVKVNLERKHQNKRTQVFPPGIVTMNEYSVPRTLQARFVRQIDFRPKAYLRKSLSCSEYLLEKRILQSGMTLLLLLIWFRPVADFAAAIHERIVQWKERLDLEISMYTFSTMKANVGMGRPILDFPREEDSEAEDSGHGSSTESQSQCFSQVSEASGADTQENCTFHICKGFQCFKKPKTPPPK
> 3 fold: all assays above
